Assay results from US20230135471A1, “UBIQUITIN VARIANTS WITH IMPROVED AFFINITY FOR 53BP1” (Integrated DNA Technologies, Inc., priority 2021, published 2023).

Assays:
[1] = target: T1, fragment of 53BP1 (a.a. 1221-1718) (Homo sapiens, UniProt Q12888); experiment: BACTH two-hybrid pooled screen in E. coli, FACS sorting of GFP positive cells and NGS enrichment of i53 amino acid changes; assay type: cell-based; conditions: i53 (SEQ ID NO: 2) background; for Rep 1 Enrichment / Rep 2 Enrichment: log2 enrichment of amino acid change in GFP positive vs input, normalised to synonymous changes; for Average Enrichment / Experiment 1 - high selection pressure Average Enrichment / Experiment 2-low selection pressure Average Enrichment: average of Rep 1 and Rep 2; for Average Enrichment: log2 enrichment; for Experiment 1 - high selection pressure Average Enrichment / Experiment 2-low selection pressure Average Enrichment: log 2 enrichment; for Experiment 1 - high selection pressure Rep 1 Enrichment / Experiment 2-low selection pressure Rep 1 Enrichment: replicate 1; for Experiment 1 - high selection pressure Rep 1 Enrichment / Experiment 1 - high selection pressure Rep 2 Enrichment / Experiment 2-low selection pressure Rep 1 Enrichment / Experiment 2-low selection pressure Rep 2 Enrichment: enrichment = log 2 of positive/input read count ratio normalised to synonymous changes; for Experiment 1 - high selection pressure Rep 2 Enrichment / Experiment 2-low selection pressure Rep 2 Enrichment: replicate 2
T1 construct: a fragment of 53BP1 (a.a. 1221-1718); expressed in transfected cells; host or cells: E. coli DHM1
From the text: (§1) In order to identify mutations that improve the affinity of i53 for 53BP1, the bacterial adenylate cyclase two-hybrid system (BACTH system) was used to screen for interaction between the two proteins. This method makes use of a B. pertussis calmodulin-dependent adenylate cyclase toxin. The catalytic domain of the toxin can be separated into two fragments (T18 and T25) that are able to associate in the presence of calmodulin but have minimal activity in its absence. If bait and prey proteins fused to T18 and T25 interact, then the catalytic activity is restored and cAMP is produced. In E. coli, cAMP binds to catabolite activator protein (CAP) that acts as a transcriptional activator for several genes. By expressing these fusion proteins in an E. coli strain that lacks endogenous adenylate cyclase and naturally lacks calmodulin, cAMP regulated protein expression can be used as a readout of bait-prey interaction. We engineered the screen so that eGFP will be expressed under the control of a cAMP-regulated promoter. The coding sequence for a fragment of 53BP1 (a.a. 1221-1718) containing the i53 interacting regions and i53 were cloned into T18 and T25 adenylate cyclase expression plasmids such that fusion proteins of each would be expressed. If a Ubv interacts with 53BP1, the T18 and T25 fragments will be brought together, adenylate cyclase activity will be restored, cAMP will be produced, and some portion of the bacterial population will be GFP positive.
A plasmid library was made consisting of Ubv-adenylate cyclase fragment fusion protein plasmids that had on average a single codon within the i53 coding region exchanged for a random NNK codon. Plasmids were transformed into DHM1 cells that lack endogenous adenylate cyclase and contain the plasmid for expression of the 53BP1 fragment fused to one of the adenylate cyclase fragments. Expression of eGFP was used as a readout of bait-prey interaction using fluorescence activated cell sorting (FACS) to sort for GFP positive bacteria. Plasmid DNA was isolated from both the sorted GFP positive bacteria (Positive) and from the original pre-sort population (Input) and was sequenced using NGS. Counts were merged for mutations that result in the same amino acid change using Enrich2 [25]. Enrichment was calculated as enrichment=log 2((read count for an amino acid change in the positive population/read count for an amino acid change in the input)/(synonymous change read count in the positive population/synonymous change read count in the input)). […] For each experiment, DHM1 cells were transformed with the Ubv fusion protein plasmid library in two separate replicates using a gene pulser (Bio-Rad). The i53-adenylate cyclase fragment fusion protein (published i53 peptide, SEQ ID NO:2) plasmid was also introduced separately as a control to estimate selection pressure. Cells were then grown and sorted using FACS and GFP positive cells were collected. Two separate experiments were conducted on separate days using different levels of selection pressure resulting in a different percent GFP positive for the i53 population (i.e. for cells that express published i53 peptide (SEQ ID NO:2) fused to one of the adenylate cyclase fragments).
(§2) There was a high degree of correlation between the two experiments and between replicates (FIG. 2). From these screens, about 230 amino acid changes were identified for which the average enrichment was positive for at least one of the experiments (Table 1). […] To validate that the amino acid changes identified from the pooled screen are reproducible on an individual basis, 24 amino acid changes identified from this screen were introduced individually into the i53 fusion protein plasmid and tested by flow cytometry for their effect on the percent positive population relative to i53 (FIG. 3). There was a strong correlation between the enrichment measured from the pooled screen and the percent reporter positive cells when mutations were screened individually.

[2] = target: T1, fragment of 53BP1 (a.a. 1221-1718); experiment: Individual two-hybrid screen of amino acid changes, percent GFP (reporter) positive cells by flow cytometry; assay type: cell-based; parameters: key to Dunnett's Multiple Comparison Summary: NS means not significant; *, **, ***, **** reflects qualitative measure of the strength of association the Ubv has with 53BP1 compared to the similar association of i53 with 53BP1.; *, **, ***, **** reflects qualitative measure of the strength of association the Ubv has with 53BP1 compared to the similar association of i53 with 53BP1.; *, **, ***, **** reflects qualitative measure of the strength of association the Ubv has with 53BP1 compared to the similar association of i53 with 53BP1.; *, **, ***, **** reflects qualitative measure of the strength of association the Ubv has with 53BP1 compared to the similar association of i53 with 53BP1; conditions: for Dunnett's Multiple Comparison Summary: comparison i53 vs. i53 + amino acid change; for Percent GFP Positive Rep 1: replicate 1, amino acid change in i53 fusion protein plasmid; for Percent GFP Positive Rep 2: replicate 2; for Percent GFP Positive Rep 3: replicate 3
From the text: as §1, §2

[3] = target: 53BP1 (amino acids 1484-1603) fused to MBP (Homo sapiens, UniProt Q12888); experiment: Biolayer interferometry (BLI) of purified His-tagged Ubvs, 1:1 binding model global fit; conditions: 1:1 binding model, global fit over all 53BP1 concentrations
Method: In order to assess the effect of mutations identified from the two-hybrid screen on the affinity of the Ubvs for 53BP1, Ubvs consisting of the i53 sequence with an N-terminal His tag and short flexible linker plus individual or combinations of screen-identified mutations were purified from E. coli (Table 3). Biolayer interferometry was used to measure the affinity of the purified proteins. Briefly, a purified Ubv was diluted in reaction buffer (1×PBS pH7.4, 0.1 mg/mL BSA, 0.001% Tween 20) to 2 ug/mL. Purified 53BP1 (amino acids 1484-1603) fused to MBP was diluted in reaction buffer to between 20 μM and 10 nM (Table 3, Table 4)). For each Ubv, 8 Ni-NTA sensor tips were hydrated and then loaded with the 2 ug/ml of a Ubv for 30 seconds. Sensor tips were then incubated in reaction buffer for 45 seconds to obtain a baseline. Tips were then moved into either empty buffer or seven different concentrations of purified 53BP1 and the association was measured. Tips were then moved back into reaction buffer and the dissociation was measured. Kon, Koff, and Kd were calculated using a 1:1 binding model using a global fit (Table 4).
A second experiment was performed using CM1 and CM7 using a longer association time (360 seconds) to allow binding to closer approach equilibrium. The BLI response vs 53BP1 fragment concentration was plotted in prism to calculate the Kd using a one site-specific binding nonlinear fit model. An i53 response was plotted on the same graph however the association time used (90 seconds) was shorter due to needing a shorter time to reach equilibrium because of the fast off rate of i53 (FIG. 5B, FIG. 5C, Table 4).

[4] = Experiment 1 - high selection pressure
[5] = Experiment 2 - low selection pressure

T1 sequence (Q12888 1221-1718): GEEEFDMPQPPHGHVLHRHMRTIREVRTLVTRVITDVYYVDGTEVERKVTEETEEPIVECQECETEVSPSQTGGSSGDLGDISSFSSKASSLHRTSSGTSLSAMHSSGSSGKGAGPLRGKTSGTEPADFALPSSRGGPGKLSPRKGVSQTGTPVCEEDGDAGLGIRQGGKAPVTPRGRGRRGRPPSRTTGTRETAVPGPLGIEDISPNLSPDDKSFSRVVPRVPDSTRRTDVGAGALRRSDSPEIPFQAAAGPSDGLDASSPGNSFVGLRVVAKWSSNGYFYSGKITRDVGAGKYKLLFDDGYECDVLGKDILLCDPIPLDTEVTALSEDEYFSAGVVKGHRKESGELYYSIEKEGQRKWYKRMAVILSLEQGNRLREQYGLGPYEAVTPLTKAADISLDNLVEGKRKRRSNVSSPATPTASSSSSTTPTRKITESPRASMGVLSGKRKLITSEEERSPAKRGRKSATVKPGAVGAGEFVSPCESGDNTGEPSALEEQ
Sequence of 53BP1 (amino acids 1484-1603) fused to MBP (Q12888 1484-1603, looked up): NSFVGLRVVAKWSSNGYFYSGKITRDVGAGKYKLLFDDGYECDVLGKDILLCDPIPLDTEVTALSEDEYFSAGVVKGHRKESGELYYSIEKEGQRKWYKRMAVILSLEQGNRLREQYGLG

| Substance | Rep 1 Enrichment [1, 4] | Rep 2 Enrichment [1, 4] | Average Enrichment [1, 4] | Rep 1 Enrichment [1, 5] | Rep 2 Enrichment [1, 5] | Average Enrichment [1, 5] | Dunnett's Multiple Comparison Summary [2] | Percent GFP Positive Rep 1 [2] [%] | Percent GFP Positive Rep 2 [2] [%] | Percent GFP Positive Rep 3 [2] [%] | Experiment 1 - high selection pressure Average Enrichment [1] | Experiment 1 - high selection pressure Rep 1 Enrichment [1] | Experiment 1 - high selection pressure Rep 2 Enrichment [1] | Experiment 2-low selection pressure Average Enrichment [1] | Experiment 2-low selection pressure Rep 1 Enrichment [1] | Experiment 2-low selection pressure Rep 2 Enrichment [1] | KD (M) [3] |
| --- | --- | --- | --- | --- | --- | --- | --- | --- | --- | --- | --- | --- | --- | --- | --- | --- | --- |
| A44T: i53 with amino acid change A44T | 1.70 | 0.87 | 1.28 | 0.75 | 0.59 | 0.67 | ns | 17.5 | 7.7 | 12.8 | – | – | – | – | – | – | – |
| i53 K6R: i53 with K6R | 1.84 | 1.91 | 1.87 | 1.22 | 0.80 | 1.01 | ** | 19.8 | 27 | 24 | – | – | – | – | – | – | – |
| i53 DM: 53BP1 binding deficient i53 variant with P69L, L70V [reference compound] | – | – | – | – | – | – | – | – | – | – | – | – | – | – | – | – | Response was too low to get a good fit to the data |
| V26I: i53 with amino acid change V26I | 0.99 | 1.25 | 1.12 | 0.96 | 0.70 | 0.83 | ns | 20.9 | 14.2 | 12.3 | – | – | – | – | – | – | – |
| L73M: i53 with amino acid change L73M | – | – | – | – | – | – | **** | 36.2 | 29.2 | 39.5 | 2.61 | 2.69 | 2.52 | 1.43 | 1.58 | 1.28 | – |
| I61L: i53 with amino acid change I61L | 1.10 | 1.02 | 1.06 | 0.75 | 0.59 | 0.67 | ns | 15.9 | 17.6 | 17.2 | – | – | – | – | – | – | – |
| K29M: i53 with amino acid change K29M | 1.72 | 1.48 | 1.60 | 1.23 | 0.57 | 0.90 | ns | 23.9 | 16.5 | 17.8 | – | – | – | – | – | – | – |

Second part, led by results:

| Rep 1 Enrichment [1, 4] | Rep 2 Enrichment [1, 4] | Average Enrichment [1, 4] | Rep 1 Enrichment [1, 5] | Rep 2 Enrichment [1, 5] | Average Enrichment [1, 5] | Dunnett's Multiple Comparison Summary [2] | Percent GFP Positive Rep 1 [2] [%] | Percent GFP Positive Rep 2 [2] [%] | Percent GFP Positive Rep 3 [2] [%] | Experiment 1 - high selection pressure Average Enrichment [1] | Experiment 1 - high selection pressure Rep 1 Enrichment [1] | Experiment 1 - high selection pressure Rep 2 Enrichment [1] | Experiment 2-low selection pressure Average Enrichment [1] | Experiment 2-low selection pressure Rep 1 Enrichment [1] | Experiment 2-low selection pressure Rep 2 Enrichment [1] | Substance | KD (M) [3] |
| --- | --- | --- | --- | --- | --- | --- | --- | --- | --- | --- | --- | --- | --- | --- | --- | --- | --- |
| – | – | – | – | – | – | *** | 28.6 | 23.5 | 28.3 | 2.28 | 2.53 | 2.04 | 1.28 | 0.99 | 1.58 | H68M: i53 with amino acid change H68M | – |
| 2.08 | 1.93 | 2.01 | 1.40 | 0.39 | 0.89 | ns | 24.2 | 11.2 | 21.5 | – | – | – | – | – | – | L67K: i53 with amino acid change L67K | – |
| 0.85 | 1.15 | 1.00 | 0.97 | 0.80 | 0.88 | ns | 18.8 | 13.6 | 17.7 | – | – | – | – | – | – | S49L: i53 with amino acid change S49L | – |
| 1.20 | 1.08 | 1.14 | 0.84 | 0.66 | 0.75 | ns | 16.9 | 14 | 14.5 | – | – | – | – | – | – | K48T: i53 with amino acid change K48T | – |
